Patent US20190309023A1 (MAINLINE BIOSCIENCES, published 2019)
Bridge positions count the residues as written; N and C are the ends. Square brackets hold non-standard residues; d marks the D form. * marks the point of attachment. 2Nal = N[C@@H](Cc1ccc2ccccc2c1)C(=O)O; Palmitoyl = CCCCCCCCCCCCCCCC(=O)*; Lauroyl = CCCCCCCCCCCC(=O)*; hCys = N[C@@H](CCS)C(=O)O; PhAc = O=C(Cc1ccccc1)*; Bz = O=C(c1ccccc1)*; Mpa = O=C(O)CCS; iPr = CC(C)*

B1: Ac-cyclo[hCys-Tyr-Lys(iPr)-(D-Arg)-2Nal-Gly-Cys]-Lys(iPr)-Gly-NH(Et) (peptide)
peptide: Ac-[hCys]YK(iPr)[dR][2Nal]GCK(iPr)G-NHEt
modifications: disulfide 1-7; also: acetate salt
notes: Synthetic cyclic peptide, acetate salt; also called MLB-026
B2: Cyclo[Mpa-Tyr-Lys(iPr)-(D-Arg)-2Nal-Gly-Cys]-Lys(iPr)-Gly-NH(Et) (peptide)
peptide: [Mpa]YK(iPr)[dR][2Nal]GCK(iPr)G-NHEt
modifications: disulfide 1-7; also: acetate salt
notes: Synthetic cyclic peptide, acetate salt; also called MLB-014
B3: Cyclo[Mpa-Tyr-Lys(iPr)-(D-Arg)-2Nal-Gly-Cys]-Lys(iPr)-Lys(Ac)-NH(Et) (peptide)
peptide: [Mpa]YK(iPr)[dR][2Nal]GCK(iPr)K(Ac)-NHEt
modifications: disulfide 1-7; also: acetate salt
notes: Synthetic cyclic peptide, acetate salt; also called MLB-027
B4: Cyclo[Mpa-Tyr-Lys(iPr)-(D-Arg)-2Nal-Gly-Cys]-Lys(iPr)-Lys(lauroyl)-NH(Et) (peptide)
peptide: [Mpa]YK(iPr)[dR][2Nal]GCK(iPr)K(Lauroyl)-NHEt
modifications: disulfide 1-7; also: acetate salt
notes: Synthetic cyclic peptide, acetate salt; also called MLB-028
B5: Cyclo[Mpa-Tyr-Lys(iPr)-(D-Arg)-2Nal-Gly-Cys]-Lys(iPr)-Lys(palmitoyl)-NH(Et) (peptide)
peptide: [Mpa]YK(iPr)[dR][2Nal]GCK(iPr)K(Palmitoyl)-NHEt
modifications: disulfide 1-7; also: acetate salt
notes: Synthetic cyclic peptide, acetate salt; also called MLB-029
B6: Cyclo[Mpa-Arg-Tyr-Arg-2Nal-Gly-Cys]-Arg-Gly-(D-Phe)-Gly-NH2 (peptide)
peptide: [Mpa]RYR[2Nal]GCRG[dF]G-NH2
modifications: disulfide 1-7; also: acetate salt
notes: Synthetic cyclic peptide, acetate salt; also called MLB-011
B7: Benzoyl-cyclo[Cys-Tyr-Lys(iPr)-(D-Arg)-2Nal-Gly-Cys]-Lys(iPr)-Gly-NH2 (peptide)
peptide: Bz-CYK(iPr)[dR][2Nal]GCK(iPr)G-NH2
modifications: disulfide 1-7; also: acetate salt
notes: Synthetic cyclic peptide, acetate salt; also called MLB-023
B8: Benzoyl-cyclo[hCys-Tyr-Lys(iPr)-(D-Arg)-2Nal-Gly-Cys]-Lys(iPr)-Gly-NH(Et) (peptide)
peptide: Bz-[hCys]YK(iPr)[dR][2Nal]GCK(iPr)G-NHEt
modifications: disulfide 1-7; also: acetate salt
notes: Synthetic cyclic peptide, acetate salt; also called MLB-024
B9: Cyclo[Mpa-Tyr-Lys(iPr)-(D-Arg)-2Nal-Gly-Cys]-Arg-Gly-(D-Phe)-Gly-NH2 (peptide)
peptide: [Mpa]YK(iPr)[dR][2Nal]GCRG[dF]G-NH2
modifications: disulfide 1-7; also: acetate salt
notes: Synthetic cyclic peptide, acetate salt; also called MLB-002
B10: Cyclo[Mpa-Tyr-Arg-(D-Arg)-2Nal-Gly-Cys]-Arg-Gly-(D-Phe)-Gly-NH2 (peptide)
peptide: [Mpa]YR[dR][2Nal]GCRG[dF]G-NH2
modifications: disulfide 1-7; also: acetate salt
notes: Synthetic cyclic peptide, acetate salt; also called MLB-001
B11: Ac-cyclo[hCys-Tyr-Lys(iPr)-(D-Arg)-2Nal-Gly-Cys]-Lys(iPr)-Gly-NH2 (peptide)
peptide: Ac-[hCys]YK(iPr)[dR][2Nal]GCK(iPr)G-NH2
modifications: disulfide 1-7; also: acetate salt
notes: Synthetic cyclic peptide, acetate salt; also called MLB-010
B12: Cyclo[Mpa-Tyr-Lys(iPr)-(D-Arg)-2Nal-Gly-Cys]-Lys(iPr)-Gly-2Nal-Gly-NH2 (peptide)
peptide: [Mpa]YK(iPr)[dR][2Nal]GCK(iPr)G[2Nal]G-NH2
modifications: disulfide 1-7; also: acetate salt
notes: Synthetic cyclic peptide, acetate salt; also called MLB-008
B13: Benzoyl-cyclo[Cys-Tyr-Lys(iPr)-(D-Arg)-2Nal-Gly-hCys]-Lys(iPr)-Gly-NH2 (peptide)
peptide: Bz-CYK(iPr)[dR][2Nal]G[hCys]K(iPr)G-NH2
modifications: disulfide 1-7; also: acetate salt
notes: Synthetic cyclic peptide, acetate salt; also called MLB-022
B14: Cyclo[Mpa-Tyr-Lys(iPr)-(D-Arg)-2Nal-Gly-Cys]-(D-Arg)-Gly-(D-Phe)-Gly-NH2 (peptide)
peptide: [Mpa]YK(iPr)[dR][2Nal]GC[dR]G[dF]G-NH2
modifications: disulfide 1-7; also: acetate salt
notes: Synthetic cyclic peptide, acetate salt; also called MLB-004
B15: Phenylacetyl-cyclo[hCys-Tyr-Lys(iPr)-(D-Arg)-2Nal-Gly-Cys]-Lys(iPr)-Gly-NH2 (peptide)
peptide: PhAc-[hCys]YK(iPr)[dR][2Nal]GCK(iPr)G-NH2
modifications: disulfide 1-7; also: acetate salt
notes: Synthetic cyclic peptide, acetate salt; also called MLB-025
B16: Benzoyl-cyclo[hCys-Tyr-Lys(iPr)-(D-Arg)-2Nal-Gly-Cys]-Lys(iPr)-Gly-NH2 (peptide)
peptide: Bz-[hCys]YK(iPr)[dR][2Nal]GCK(iPr)G-NH2
modifications: disulfide 1-7; also: acetate salt
notes: Synthetic cyclic peptide, acetate salt; also called MLB-021

What follows are binders tested against T1, Human chemokine receptor CXCR4 (human, UniProt P61073 1-352) (assay: competition with [125I]SDF-1α, human CXCR4 membranes (Chem-1 cells)).
T1 construct: whole, on cells; Used as membranes (0.5 ug membrane protein) of Chem-1 cells that express the receptor; also called C-X-C chemokine receptor type 4; fusin
T1 sequence (P61073 whole entry): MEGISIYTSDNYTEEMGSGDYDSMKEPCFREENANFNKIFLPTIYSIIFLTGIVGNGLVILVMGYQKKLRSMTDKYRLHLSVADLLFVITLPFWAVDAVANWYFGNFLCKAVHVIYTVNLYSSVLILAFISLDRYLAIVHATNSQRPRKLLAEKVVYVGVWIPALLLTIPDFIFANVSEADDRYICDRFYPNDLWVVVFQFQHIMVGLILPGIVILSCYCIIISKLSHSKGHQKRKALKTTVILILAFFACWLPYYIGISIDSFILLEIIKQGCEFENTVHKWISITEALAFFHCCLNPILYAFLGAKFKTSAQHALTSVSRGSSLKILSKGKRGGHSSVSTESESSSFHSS
Experimental: Human chemokine receptor CXCR4 expressed in Chem-1 cells were used in modified HEPES buffer pH 7.4. A 0.5 μg (Membrane protein may change from lot to lot, the concentration used were adjusted as necessary), aliquot was incubated with 0.03 nM [¹²⁵I]SDF-1α for 90 minutes at 25° C. Non-specific binding was estimated in the presence of 30 nM SDF-1α. Membranes were filtered and washed, filters were then counted to determine [¹²⁵I]SDF-1α specifically bound. Compounds were screened starting at 10 μM with 11-point dilutions (Valenzuela-Fernandez A, et al. J Biol Chem. 277(18):15677, 2002).

| Binder | Binding Kb | IC50 |
| --- | --- | --- |
| B1 | 0.27 nM | 0.89 nM |
| B2 | 0.19 nM | 0.64 nM |
| B3 | 0.15 nM | 0.48 nM |
| B4 | 2.5 nM | 8.2 nM |
| B5 | 3.2 nM | 11 nM |
| Ac-CYK(iPr)[dR][2Nal]GCK(iPr)G-NH2 (linker 1-7 via 1,3‑bisbromomethyl benzene; also: acetate salt, Acetate salt) [MLB-033] | 0.99 nM | 3.3 nM |
| B6 | > 1000 nM |  |
| Bz-CYK(iPr)[dR][2Nal]GCK(iPr)G-NH2 (linker 1-7 via 1,2‑bisbromomethyl benzene; also: acetate salt, Acetate salt) [MLB-030] | 0.39 nM | 1.3 nM |
| B7 | 1 nM | 3.4 nM |
| B8 | 0.39 nM | 1.3 nM |
| B9 | 0.28 nM | 0.92 nM |
| B10 | 7.3 nM | 24 nM |
| B11 | 0.17 nM | 0.56 nM |
| B12 | 0.29 nM | 0.95 nM |
| B13 | 0.21 nM | 0.71 nM |
| B14 | 0.21 nM | 0.7 nM |
| Ac-CYK(iPr)[dR][2Nal]GCK(iPr)G-NH2 (linker 1-7 via 1,2‑bisbromomethyl benzene; also: acetate salt, Acetate salt) [MLB-032] | 0.12 nM | 0.4 nM |
| B15 | 0.25 nM | 0.84 nM |
| B16 | 0.13 nM | 0.42 nM |
